# Earlier results in patent publication US10487153B2, “Carbonic anhydrase IX-specific antibodies and uses thereof” (National Research Council of Canada, priority 2015, dated 2019).
# Molecular target: T1, CA-IX (Homo sapiens, UniProt Q16790)
# T1 construct: host or cells: patients' own tumour tissue (endogenous)
# Conditions: >6-year span; compared to a placebo; cited from earlier work
substance,measurement,value
"cG250: chimeric version of anti-CA-IX mAb G250, developed as a therapeutic antibody",disease-free survival rate of patients,not improve the disease-free survival rate
